# Source: publication PMC12853182, “Dynamic acetylation of a conserved lysine impacts glycerol kinase activity and abundance in the haloarchaeon Haloferax volcanii” (The Journal of Biological Chemistry, 2025)
# B1: N-terminally His-tagged Haloferax volcanii glycerol kinase (His-HvGK), wildtype, purified from H. volcanii (enzyme, UniProt D4GYI5 1-510, looked up)
# chain: MSGETYVGAIDQGTTGTRFMVFDHDGKVVANAYEKHEQIYPEPGWVEHDANEIWDNTKQVIDAALSSAGLDAEQLEAIGITNQRETTLVWDRETGQPIHNAIVWQDRRTTDRIETLEAEGKTDDVRAKTGLEPDAYFSATKAEWLLDNSDPIKLQRSRPEDIRDRAADGELAFGTIDTWLIYNLTGNHITDVTNASRTMLFNIHDMEWDDELLDEFNVPRELLPEVRPSSDDDYYGTTDADGFLGAEVPVAGALGDQQAALFGQTCFDAGDAKNTYGTGSFMLMNTGDEAVMSEHGLLTTVGFQRSGEPVQYALEGSIFITGAAIEWLEDMTLIDNAAESEKLARSVESTDGVYFVPAFTGLGAPHWDQRARGTIVGMTRGTRREHIVRATLESIAFQTRDVAEAMESDSEIDLSSLRVDGGAVKNNFLCQLQSNILDTEIVRPQVDETTALGAAYAAGLAVGYWETLDELRENWQVDREFAPKDPQNVEHRYGRWKEAVDRSLDWAREE
# modifications: acetyl-lysine at K153, partial occupancy by AQUA-MS (50% in FruMM, 33% in ATCC rich medium, 17% in GluMM)
# notes: Glycerol kinase (GlpK) of Haloferax volcanii, UniProt D4GYI5, gene hvo_1541; theoretical molecular weight 56.7 kDa monomer; The glpK gene was amplified and cloned into a pJAM503 backbone modified for an N-terminal His-tag fusion (pJAM4351); also called His-HvGK wt; HvGKHv; source: H. volcanii, expressed from a plasmid, cells grown in ATCC 974 rich medium, GluMM or FruMM; purified (Ni-NTA); not …
# Molecular target: the molecule itself
# Test: SEC; Superdex 200 HR 10/300 GL, 50 mM HEPES pH 7.5, 2 M NaCl, 1 mM DTT, without glycerol; His-HvGK from cells grown in ATCC, GluMM or FruMM; mass by standard curve
protein,measurement,value
B1,stoichiometry N,2
